# Assay: soluble on expression in E. coli; label from the status in PepcDB or PDB records
row,Sequence,soluble on expression in E. coli
1,SPLELELCPGRWVGGQHPCFIIAEIGQNHQGDLDVAKRMIRMAKECGADCAKFQKSELEFKFNRKALDRPYTSKHSWGKTYGEHKRHLEFSHDQYRELQRYAEEVGIFFTASGMDEMAVEFLHELNVPFFKVGSGDTNNFPYLEKTAKKGRPMVISSGMQSMDTMKQVYQIVKPLNPNFCFLQCTSAYPLQPEDVNLRVISEYQKLFPDIPIGYSGHETGIAISVAAVALGAKVLERHITLDKTWKGSDHSASLEPGELAELVRSVRLVERALGSPTKQLLPCEMACNEKLGKSVVAKVKIPEGTILTMDMLTVKVGEPKGYPPEDIFNLVGKKVLVTVEEDDTIMEELVDNHGKKIKS,soluble
2,MIKYSIRGENLEVTEAIRDYVVSKLEKIEKYFQPEQELDARINLKVYREKTAKVEVTIPLGSITLRAEDVSQDMYGSIDLVTDKIERQIRKNKTKIERKNKNKVATGQLFTDALVEDSNIVQSKVVRSKQIDLKPMDLEEAILQMDLLGHDFFIYVDVEDQTTNVIYRREDGEIGLLEVKESAAALEHHHHHH,soluble
3,MSKAGASLATCYGPVSADVMAKAENIRLLILDVDGVLSDGLIYMGNNGEELKAFNVRDGYGIRCALTSDIEVAIITGRKAKLVEDRCATLGITHLYQGQSNKLIAFSDLLEKLAIAPENVAYVGDDLIDWPVMEKVGLSVAVADAHPLLIPRADYVTRIAGGRGAVREVCDLLLLAQGKLDEAKGQSI,soluble
4,GSHMRPQGATVSLWETVQKWREYRRQCQRSLTEDPPPATDLFCNRTFDEYACWPDGEPGSFVNVSCPWYLPWASSVPQGHVYRFCTAEGLWLQKDNSSLPWRDLSECEESKRGERSSPEEQLLFLY,soluble
5,MIFAAIADIHGNCAALEAVLEDIAKLGIKDIVNLGDCFSGPLEAGFTGDVLVGNWIPSIRGNHDRELIERAPENMGSWEKPAHAQLTAAHLDWLHTLPFSMVFRDVAYCCHGSPLGDLDYWLETLSPEGVLKLRPLAEIEERAEGITQPLMLCGHTHIPRAVQLSDGRLIVNPGSVGCPGWKDDTPFDHHVEAGHALATYAVLEETGRGWQVYFRNIRYDNLAMSEMARVNGIPYLADALTNGWLKR,not soluble
6,MGHHHHHHSHMAGEKAQKKGKEKWKEKTWYTVESPPYLGSKEVTVALGEDPESMVNRIVEVPISDLTGNFKKSNEKALFRITGCEGTKCKTIFIGHYIGDDYIRRLVRRRKERIDIIEDVKTSDGSIITVKIVVVSDGKLTNTKKSEIRKALTSFIVSKGSQLSYADFVRYLIGDDSYNDMVEATKNIYPLRKIEIRKSELVSLSGMQEPQKNEPAPGGEAIAQN,not soluble
7,KIWLFFIEQANNEIRIDLRSNGINVRDIAIKYGGGGHNNASGAIITNKKQISDVVSD,soluble
8,MNYFPDEVIEHVFDFVTSHKDRNAISLVCKSWYKIERYSRQKVFIGNCYAINPERLLRRFPCLKSLTLKGKPHFADFNLVPHEWGGFVLPWIEALARSRVGLEELRLKRMVVTDESLELLSRSFVNFKSLVLVSCEGFTTDGLASIAANCRHLRDLDLQENEIDDHRGQWLSCFPDTCTTLVTLNFACLEGETNLVALERLVARSPNLKSLKLNRAVPLDALARLMACAPQIVDLGVGSYENDPDSESYLKLMAVIKKCTSLRSLSGFLEAAPHCLSAFHPICHNLTSLNLSYAAEIHGSHLIKLIQHCKKLQRLWILDSIGDKGLEVVASTCKELQELRVFPSDLLGGGNTAVTEEGLVAISAGCPKLHSILYFCQQMTNAALVTVAKNCPNFIRFRLCILEPNKPDHVTSQPLDEGFGAIVKACKSLRRLSLSGLLTDQVFLYIGMYANQLEMLSIAFAGDTDKGMLYVLNGCKKMKKLEIRDSPFGDTALLADVSKYETMRSLWMSSCEVTLSGCKRLAEKAPWLNVEIINENDNNRMEENGHEGRQKVDKLYLYRTVVGTRMDAPPFVWIL,not soluble
9,MRTFTWRKGSLSKVNTCYVLAGGKSKRFGEDKLLYEIKGKKVIERVYETAKSVFKEVYIVAKDREKFSFLNAPVVLDEFEESASIIGLYTALKHAKEENVFVLSGDLPLMKKETVLYVLENFKEPVSVAKTEKLHTLVGVYSKKLLEKIEERIKKGDYRIWALLKDVGYNEVEIPEELRYTLLNMNTKEDLKRILAIENHY,soluble
10,PSSSQSEEKAPELPKPKKNRCFMCRKKVGLTGFDCRCGNLFCGLHRYSDKHNCPYDYKAEA,soluble
11,MGSDKIHHHHHHMCQRAIANIDISKEYDESMGSNDVHYQSFARMADFFGRDMQAHRHDQFFQMHFLDTGQIELQLDDHRYSVQAPLFVLTPPSVPHAFITESDSDGHVLTVREELVWPLLEVLYPGTREAFGLPGICLSLADKPNELAALKHYWQLIERESTEQLAGCEHTLVLLAQAVFTLLLRNAKLDDHAATGMRGELKLFQRFTLLIDNHFHQHWTVPDYACELHITESRLTDICRRFANRPPKRLIFDRQLREAKRLLLFSDNAVNEIAWQLGFKDPAYFARFFNRLAGCSPSQFRQREVPSFLN,not soluble
12,MGSDKIHHHHHHMATLGANASLYSEQHRITYYECDRTGRATLTTLIDIAVLASEDQSDALGLTTEMVQSHGVGWVVTQYAIDITRMPRQDEVVTIAVRGSAYNPYFAYREFWIRDADGQQLAYITSIWVMMSQTTRRIVKILPELVAPYQSEVVKRIPRLPRPISFEATDTTITKPYHVRFFDIDPNRHVNNAHYFDWLVDTLPATFLLQHDLVHVDVRYENEVKYGQTVTAHANILPSEVADQVTTSHLIEVDDYYCCEVTIQWRTLPEPIQ,not soluble
13,MSAPWETLLDWWFGTSSDAAEVVAQRNGLWFGKNVCQDADAGGRFGDLVNQALDGGLQEWTAEADGWLALILLLDQLPRMIYRDTPRAYAGDARAQRVVREGLEKGFDRQLPPVRRVFAYLVLEHAEDLPSQERAVACFRDLRDQVGGSVRKPFDDFYDYAERHHAVVARFGRFPHRNAILGRPSSEEETAFLREPGSRF,not soluble
14,MVPITHQNLIEMMTYALVLSGNRVITSGATGTNSAAIKGAMRADPNLLTVILPQSLERQPQESRQQLEQVMHLVENPSNDNLSLAEASYLCNKEIVSRCQQLICFAFHDSRTLLQTCGDAEEQRKVVTLFYFDLEHHHHHH,not soluble
15,SANDKQYISYNNVHQLCQVSAERIKNFKPDLIIAIGGGGFIPARILRTFLKEPGVPTIRIFAIILSLYEDLNSVGSEVEEVGVKVSRTQWIDYEQCKLDLVGKNVLIVDEVDDTRTTLHYALSELEKDAAEQAKAKGIDTEKSPEMKTNFGIFVLHDKQKPKKADLPAEMLNDKNRYFAAKTVPDKWYAYPWESTDIVFHTRMAIEQGNDIFIPEQEHKQ,soluble
16,KNVNRVLSAEALKPGMLLTGTVSSLEDHGYLVDIGVDGTRAFLPLLKAQEYIRQKNKGAKLKVGQYLNCIVEKVKGNGGVVSLSVGHSEVSTAIATEQQSWNLNNL,soluble
17,MVDEDKKSGTRVFKKTSPNGKITTYLGKRDFIDRGDYVDLIDGMVLIDEEYIKDNRKVTAHLLAAFRYGREDLDVLGLTFRKDLISETFQVYPQTDKSISRPLSRLQERLKRKLGANAFPFWFEVAPKSASSVTLQPAPGDTGKPCGVDYELKTFVAVTDGSSGEKPKKSALSNTVRLAIRKLTYAPFESRPQPMVDVSKYFMMSSGLLHMEVSLDKEMYYHGESISVNVHIQNNSNKTVKKLKIYIIQVADICLFTTASYSCEVARIESNEGFPVGPGGTLSKVFAVCPLLSNNKDKRGLALDGQLKHEDTNLASSTILDSKTSKESLGIVVQYRVKVRAVLGPLNGELFAELPFTLTHSKPPESPERTDRGLPSIEATNGSEPVDIDLIQLHEELEPRYDDDLIFEDFARMRLHGNDSEDQPSPSANLPPSLL,not soluble
18,MGSDKIHHHHHHMREEWLFSRYLNRKRVQRAASLGAGRAETEIALLELGAVEHFDLFDVSSVGIEYAKSIAEEKGFGHKVTCHVGPIGCAELNENTYDLITFVASLHHMEPLAETLERANRALTQHGIIWCANEYIGPDRFDYPVAHAAIAKSFFQQIPPGLRNHWHRELQFPTPQEVAEVDPTEAPCSSKIEPTMRDMFPALEIMPLYGAFAFMVFWGLNHDALYETPEGTELTRFILGMDKALTDAGILPTYFAHIIARKNNAPRQQIHRPGRHSSALLYRYAQRAASILRHLKIR,not soluble
19,MPFGLKSSQSIDDKFMSITQMKNLIHYVKKNDALSHLCIYILIITGSRFKPVQHLRYEDLNFKKSCIHLNDTKNKYSKRNVKVRIKDLEYIQSVINKHPINQNGYIFHNFINFISYSAINDVLVRFCLKYKYDKYTLKSLRHTHCSYLLAKGISIQYISKRLGHADIHTTLKIYSHLIKEFEDSENSLIEKNLNDLFSDLEHHHHHH,soluble
20,MEVLLTETFYTIGRSPRADIRIKSQFVSRIHAVLVRKSSDDVQAAYRIIDGDEDGQSSVNGLMINGKKVQEHIIQTGDEIVMGPQVSVRYEYRRRDQFGTMLEHHHHHH,not soluble
21,MEENKQRVKSMINILQLVAPGTPLREGIDNVLRAQTGGLIVLGYNEQIKSIVDGGFHINCAFSPASLYELAKMDGALILNETGSKILIANAQLVPDSSIDSIETGMRHRTAERVAKQTGSLVVAISQRRNVITLYQGNLRYTLKDIGVILTKANQAIQTLEKYKAVWNDGITNLGILEFEEVVTMSEVVHVLHSVEMVLRIKNEILSYIHELGTEGRLIRLQLTELLADLEAEAALLIKDYHQEKTQDHHQILKKLQDLANTQLLEDSDLVKLLGYPGQTSLEESVTPRGYRITSKISRVPPLIIENLINRFKTLQGVCRATINELDDVEGIGEVRAKKIREGLKRIQEHLYMSRHN,not soluble
22,MKKFVALILGCITICGLYGCSKNSSQIINKTFSLPAYNRIEIDSANDDIKIISGKHYRVRYVGQNKLKPTIKVKNGVLVIDSPKKSTIINSNIFGSKNIKQTLTIEMPKKELKYLSVDTSNGDVSVDYLEVQKGTIDTSNGNVNLKNLITKKDFEIDTSNGTVKVGKSNVEGYALSTSNGSIVVKGENKSDEFEKNTSAKNVLSIDTSNGNIYVNLEHHHHHH,not soluble
23,MYQNFVTKHDTAIQTSRFSVTGNVIPAAPTGNIPVINGGSITAERAVVNLYANMNVSTSSDGSFIVAMKVDTSPTDPNCVISAGVNLSFAGTSYPIVGIVRFESASEQPTSIAGSEVEHYPIEMSVGSGGVCSARDCATVDIHPRTSGNNVFVGVICSSAKWTSGRVIGTIATTQVIHEYQVLQPLK,soluble
24,MGSDKIHHHHHHMDRIIEKLDHGWWVVSHEQKLWLPKGELPYGERANFDLVGQRALQIGEWQGEPVWLVQQQRRHDMGSVRQVIDLDVGLFQLAGRGVQLAEFYRSHKYCGYCGHEMYPSKTEWAMLCSHCRERYYPQIAPCIIVAIRRDDSILLAQHTRHRNGVHTVLAGFVEVGETLEQAVAREVMEESGIKVKNLRYVTSQPWPFPQSLMTAFMAEYDSGDIVIDPKELLEANWYRYDDLPLLPPPGTVARRLIEDTVAMCRAEYE,not soluble
25,MKKSITTLDLNLLLCLQLLMQERSVTKAAKRINVTPSAVSKSLAKLRAWFDDPLFVNSPLGLSPTPLMVSMEQNLAEWMQMSNLLLDKPHHQTPRGLKFELAAESPLMMIMLNALSKQIYQRYPQATIKLRNWDYDSLDAITRGEVDIGFSGRESHPRSRELLSSLPLAIDYEVLFSDVPCVWLRKDHPALHQTWNLDTFLRYPHISICWEQSDTWALDNVLQELGRERTIAMSLPEFEQSLFMAAQPDNLLLATAPRYCQYYNQLHQLPLVALPLPFDESQQKKLEVPFTLLWHKRNSHNPKIVWLRETIKNLYASMA,soluble
26,MSLEAKMEQIYQQIADTLVNIVPEEWKQILLYAEYREGYKKIFFYYYPETRIKPVYSLDITDLFHMNEDKYHELENKLYHCFSRLWEEFKEQEQQQWTNLTYTLDNTGRMKINYGYEDLFELSPVEKQEKWEAEYLEQEIEEGHHHHHH,soluble

# From the DeepSol protein solubility set
